Data published in the Human Domainome abundance scans (Beltran et al. 2025).
± gives the uncertainty stated by the source.

B1: Zinc finger homeobox protein 3, residues 2643 to 2698; numbered along this chain, Q15911 (parent)
chain: RLRTTITPEQLEILYQKYLLDSNPTRKMLDHIAHEVGLKKRVVQVWFQNTRARERK

Variants of: B1
Assay: abundance fitness (aPCA) (normalised: wild type 0, dead -1); higher = more abundant; growth selection in yeast, the domain comes from the species named
Conditions: Homo sapiens

| Variant | abundance fitness |
| --- | --- |
| L38E | -0.869 ± 0.12 |
| L38Q | -0.734 ± 0.16 |
| L38Y | -1 ± 0.41 |
| L38H | -0.737 ± 0.19 |
| L38V | -0.163 ± 0.078 |
| V45G | -0.213 ± 0.076 |
| V45C | -0.329 ± 0.12 |
| V45T | -0.24 ± 0.11 |
| V45R | -0.561 ± 0.084 |
| E12C | -0.111 ± 0.11 |
| E12I | -0.438 ± 0.19 |
| E12M | 0.335 ± 0.11 |
| E12P | -0.87 ± 0.15 |
| S22D | 0.075 ± 0.12 |
| S22A | -0.003 ± 0.086 |
| S22N | -0.273 ± 0.12 |
| T5M | 0.286 ± 0.15 |
| P24V | -0.785 ± 0.088 |
| P24H | -0.687 ± 0.19 |
| P24T | -0.957 ± 0.15 |
| P24N | -0.623 ± 0.17 |
| P24L | -0.79 ± 0.11 |
| I13T | -0.01 ± 0.1 |
| I13Q | -0.095 ± 0.12 |

| Variant | abundance fitness |
| --- | --- |
| I13E | -0.339 ± 0.12 |
| I13A | -0.079 ± 0.098 |
| I13R | -0.123 ± 0.082 |
| F47Y | -0.388 ± 0.22 |
| F47E | -0.736 ± 0.15 |
| F47M | -0.522 ± 0.13 |
| F47C | -0.945 ± 0.17 |
| I6M | 0.068 ± 0.094 |
| I6L | 0.051 ± 0.072 |
| I32H | -0.527 ± 0.26 |
| I32R | -1.01 ± 0.11 |
| I32V | -0.078 ± 0.084 |
| I32N | -1.25 ± 0.25 |
| L20E | -0.079 ± 0.15 |
| L20H | -0.286 ± 0.13 |
| K56P | -0.225 ± 0.38 |
| K56R | -0.35 ± 0.17 |
| K56G | 0.001 ± 0.15 |
| K56M | -0.204 ± 0.4 |
| V36H | -0.964 ± 0.2 |
| V36L | -0.145 ± 0.094 |
| L19P | -0.535 ± 0.18 |
| L19A | -0.075 ± 0.11 |
| L19N | -0.422 ± 0.16 |

| Variant | abundance fitness |
| --- | --- |
| L19C | -0.032 ± 0.12 |
| L19W | -0.365 ± 0.11 |
| L19M | 0.039 ± 0.13 |
| L19D | -0.211 ± 0.13 |
| D21F | -0.373 ± 0.23 |
| R51P | -0.812 ± 0.14 |
| R51V | -0.155 ± 0.076 |
| R51M | 0.098 ± 0.11 |
| P8W | 0.193 ± 0.12 |
| P8I | 0.993 ± 0.19 |
| P8V | 0.544 ± 0.094 |
| M28I | -0.557 ± 0.43 |
| Q44Y | -0.114 ± 0.12 |
| T50K | -0.091 ± 0.13 |
| T50S | -0.202 ± 0.094 |
| T50A | 0.056 ± 0.086 |
| T50W | -0.156 ± 0.091 |
| T50Y | -0.048 ± 0.15 |
| A33L | -0.872 ± 0.089 |
| A33W | -0.728 ± 0.18 |
| A33K | -0.804 ± 0.14 |
| A33G | -0.398 ± 0.086 |
| A33Q | -0.845 ± 0.14 |
| R3M | 0.317 ± 0.12 |

| Variant | abundance fitness |
| --- | --- |
| R3F | 0.037 ± 0.15 |
| R3K | 0.209 ± 0.11 |
| R3D | 0.543 ± 0.11 |
| R3W | 0.241 ± 0.1 |
| A52T | -0.419 ± 0.1 |
| A52F | -0.428 ± 0.2 |
| E9I | -0.241 ± 0.078 |
| E9Y | -0.286 ± 0.08 |
| E9T | -0.211 ± 0.085 |
| E9V | -0.246 ± 0.075 |
| R55N | 0.462 ± 0.17 |
| Q16W | -0.615 ± 0.13 |
| Q16P | -1.08 ± 0.21 |
| Q16F | 0.042 ± 0.22 |
| Q16L | 0.572 ± 0.096 |
| Q16Y | -0.436 ± 0.16 |
| E35M | -0.417 ± 0.11 |
| E35I | -0.029 ± 0.14 |
| E35H | -0.274 ± 0.13 |
| E35G | -0.487 ± 0.092 |
| E35S | -0.224 ± 0.083 |
| L2P | -0.227 ± 0.16 |
| L2G | 0.136 ± 0.083 |
| L2Y | 0.222 ± 0.16 |

| Variant | abundance fitness |
| --- | --- |
| L2A | -0.009 ± 0.12 |
| L2I | 0.217 ± 0.13 |
| L29K | -0.695 ± 0.16 |
| L29E | -0.159 ± 0.14 |
| L29G | -0.683 ± 0.092 |
| W46P | -0.891 ± 0.17 |
| W46M | -0.956 ± 0.2 |
| W46G | -0.792 ± 0.1 |
| W46E | -1.08 ± 0.18 |
| K17L | -0.303 ± 0.099 |
| N49S | -0.029 ± 0.089 |
| N49P | -0.778 ± 0.17 |
| N49I | -0.267 ± 0.17 |
| N49Q | -0.168 ± 0.14 |
| N49T | 0.04 ± 0.12 |
| R26F | 0.029 ± 0.1 |
| R26A | 0.434 ± 0.088 |
| Y15A | -0.202 ± 0.096 |
| Y15M | -0.049 ± 0.11 |
| Y15F | -0.444 ± 0.17 |
| T4A | -0.193 ± 0.1 |
| T4S | -0.144 ± 0.13 |
| T4K | -0.318 ± 0.16 |
| R1K | 0.027 ± 0.2 |

| Variant | abundance fitness |
| --- | --- |
| D30T | -0.312 ± 0.13 |
| D30E | -0.29 ± 0.11 |
| Q48C | -0.189 ± 0.14 |
| Q48E | 0.404 ± 0.12 |
| Q48Y | -0.089 ± 0.21 |
| V43I | -0.127 ± 0.15 |
| V43S | -0.821 ± 0.11 |
| T25M | -0.256 ± 0.12 |
| T25A | -0.243 ± 0.087 |
| T7V | -0.688 ± 0.1 |
| T7A | 0.08 ± 0.084 |
| T7G | -0.072 ± 0.077 |
| V42W | -0.048 ± 0.1 |
| G37C | -0.297 ± 0.087 |
| G37F | -0.55 ± 0.15 |
| G37I | -0.891 ± 0.17 |
| G37H | -0.404 ± 0.16 |
| Q10S | -0.48 ± 0.069 |
| Q10W | -0.856 ± 0.12 |
| Q10C | -0.52 ± 0.086 |
| Q10K | -0.432 ± 0.1 |
| Q10E | -0.516 ± 0.15 |
| L11N | 0.305 ± 0.25 |
| L11Q | -0.133 ± 0.11 |

| Variant | abundance fitness |
| --- | --- |
| L11R | 0.049 ± 0.074 |
| L11K | -0.143 ± 0.12 |
| L11Y | -0.024 ± 0.15 |
| E54A | -0.478 ± 0.072 |
| E54R | -0.701 ± 0.09 |
| E54V | -0.39 ± 0.079 |
| R53Y | -0.327 ± 0.15 |
| H31W | -0.251 ± 0.14 |
| H31C | 0.096 ± 0.13 |
| Y18C | -0.696 ± 0.13 |
| K39Q | 0.108 ± 0.15 |
| K39T | 0.373 ± 0.11 |
| R41I | 0.544 ± 0.18 |
| R41N | 0.2 ± 0.36 |
| K40S | 0.237 ± 0.092 |
| K40M | 0.192 ± 0.12 |
| K40L | 0.283 ± 0.09 |
| H34L | -0.225 ± 0.084 |
| N23T | -0.379 ± 0.16 |
| N23Y | -0.1 ± 0.27 |
| N23V | -0.37 ± 0.098 |
| N23A | -0.23 ± 0.13 |
| N23K | -0.335 ± 0.17 |
